# Values quoted from earlier work in PMC3338619, “Ligand Binding Study of Human PEBP1/RKIP: Interaction with Nucleotides and Raf-1 Peptides Evidenced by NMR and Mass Spectrometry” (PLoS ONE, 2012).
# Target: Raf-1 tri-phosphorylated peptide (Homo sapiens) (UniProt P04049)
substance,measurement,value
rPEBP1 (from UniProt P31044),Kd,20 µM
